Experimental data published in patent US20240109958A1 (Genentech, published 2024).
Groups on a side chain read outwards from the residue. No end group written: not given here.

T1: biotinylated K-ε-GG peptide (AAA{K-ε-GG}AAA) (also: biotinylated, position not given here)
T1 construct: also called branched diglycine peptide
T1 peptide: AAAK([Gly-Gly])AAA

B1: anti-GGX monoclonal antibody 2B12 (rabbit IgG) (antibody, V domains shown)
VH: QSVEESGGGLVTPGGALTLTCTASGFSLNRHWMNWVRQAPGKGLEWIGAINESGRTYYATWAKGRFFISKTTTTVDLKITSPTTADTATYFCVRDDDVSNFWGPGTLVTVSS
VL: DPMLTQTPSSVSAAVGGTVSINCQSTKSVYKYNHLSWYQQKPGQPPKQLIFPASTLQSGVPSRFSGSGSGTQFTLTISDVQCDDAATYYCLGLYDCRSGDCNVFGGGTKLEIKG
notes: also called anti-GGX antibody 2B12
B2: anti-GGX monoclonal antibody 1C7 (rabbit IgG) (antibody, V domains shown)
VH: QSVKESGGRLVTPGTPLTLTCKVSGFSLSSYYMNWVRQAPGKGLEWIGIMFPNGKIYYATWAKGRFTISKTSTTVDLKIISPTTEDTATYFCTGDDSGDVNIWGPGTLVTVSS
VL: DIVLTQTASPVSAAVGGTVTINCQSSQSVYTNNRLAWYQQKPGQPAKEMIYGASTLPSGVSSRFKGSGSGTQFALTISDVQCDDAATYYCLGTYDCLSADCLAFGGGTKLEIKG
notes: also called anti-GGX antibody 1C7; anti-GGX mAb
B3: anti-GGX monoclonal antibody 2E9 (rabbit IgG) (antibody, V domains shown)
VH: QKQLMESGGRLVTPGTPLTLTCKVSGFSLSSYYMNWVRQAPGKGLEWIGIMFPNGKIYYATWAKGRFTISKTSTTVDLKIISPTTEDTATYFCTGDDSGDVNIWGPGTLVTVSS
VL: DIVLTQTASPVSAAVGGTVTINCQSSQSVYTNNRLAWYQQKPGQPAKEMIYGASTLPSGVSSRFKGSGSGTQFALTISDVQCDDAATYYCLGEFDCTSADCFVFGGGTEVVVKG
notes: also called anti-GGX antibody 2E9; anti-GGX 2E9 antibody
B4: anti-GGX monoclonal antibody 2H2 (rabbit IgG) (antibody, V domains shown)
VH: QSVEESRGRLVTPGTPLTLTCKVSGFSLSSYYMNWVRQAPGKGLEWIGIMFPNGKIYYATWAKGRFTISKTSTTVDLKIISPTTEDTATYFCTGDDSGDVNIWGPGTLVTVSS
VL: DPMLTQTASPVSAAVGGTVTINCQSSQSVYSNNRLAWYQQKPGQPPKEMIYGASTLPSGVSSRFKGSGSGTQFTLTISDVQCDDAATYYCLGTYDCLSADCLAFGGGTEVVVKG
notes: also called anti-GGX antibody 2H2; anti-GGX 2H2 antibody

Molecular target: T1, biotinylated K-ε-GG peptide …
Experiment: ELISA, biotinylated peptide on neutravidin plates
Procedure: Biotinylated peptides (GGM and K-ε-GG) were coated at 1 μg/mL in PBS on neutravidin ELISA plates (Thermo Scientific) in triplicate overnight at 4° C. Plates were washed with PBST prior to use. Serial dilutions of GGX mAbs or K-ε-GG mAb (Cell Signaling Technology) at 1 μg/mL were added for 1-2 hours at 25° C. Plates were washed and further developed as described above (see FIG. 1E).

Binding result, no binding (tested: 1 µg/mL):
B1, B2, B3, B4
